# In the nanobody polyreactivity screen of Harvey et al. (2022):
# Assay: yeast display, Sf9 membrane polyspecificity reagent, FACS + sequencing; frameworks hold sequencing errors
# Summary of the method: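 Nanobodies came from a synthetic yeast display library in Saccharomyces cerevisiae BJ5465, induced with galactose for 36–48 hours and stained for 1 hour at 4 °C with 10% biotinylated, detergent-solubilized Sf9 membrane reagent. Cells were enriched on streptavidin microbeads and then FACS-sorted, with low and high (top ~1%) gates set on anti-HA fluorescence for expression and streptavidin fluorescence for reagent binding. Each polyreactivity label reflects the gate a clone came from. Genes were amplified by colony PCR, sequenced by MiSeq 2 × 250 and filtered by CDR length.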
row,Sequence,polyreactivity (PSR sort gate)
1,QVQLVESGGGLVQAGGSLRLSCAASGRTFGPYAMGWYRQAPGKEREMVAAIRFSGGSTYYADSVKGRFTISRDNAKNTVYLQMNSLKPEDTAVYYCNARLGSSKGRVEKYGSWGQGTQVTVSS,high polyreactivity
2,QVQLGESGGGLVQEGGSLRLSCAASGSTLQDYDMGWYRQAPGKERELVAAITWSTGTTYYADSVKGRFTISRDNAKNTVYLQMNSLKPEDPAVYYCAVDSYYRATYTYRYDYWGLGTQVTVSS,low polyreactivity
3,QVQLVESGGGLVQAGGSLRLSCAASGRTFYPYAKGWYRQAPGKERELVAAIRWSGGSTYYADSVKGRFTISRDNAKNTVYLQMNSLKPEDTAVYYCNADWKSYRGPKFDYWGQGTQVTVSS,low polyreactivity
4,QVQLVESGGGLVQAGGSLRLSCAASGSTLYTYAMGWYRQAPGKERELVADISTGGSTYYADSVKGRFTISRDNAKNTVYLQMNSLKPEDTAVYYCAAESWFDPVDYWGQGTQVTVSS,low polyreactivity
5,QVQLVESGGGLVQAGGSLRLSCAATGSIFYGNAMGWYRQAPGKERELVAAISWGAGSTYYADSVKGRFTISRDNAKNTVYLQMNSLKPEDTAVYYCNTLQITGWYDYWGQGTQVTVSS,high polyreactivity
6,QVQLVESGGGLVQAGGSLRLSCAASGFIFFTYAMGWYRQAPGKERELVAAISSRGGSTYYADSVKGRFTISRDNAKNTVYLQMNSLKPEDTAVYYCADRTRRRRGEYDYWGQGTQVTVSS,high polyreactivity
7,QVQLQESGGGLVQAGGSLRLSCAASGVIFARNYMGWYRQAPGKERELVAGIGVGASTNYADSVKGRFTISRDNAKNTVYLQMNRLEPEDTAVYYCAVVDTVLGYHYYWGQGTQVTVSN,low polyreactivity
8,QVQLVESGGGLVQAGGSLRLSCAASGFIFNYNAMGWYRQAPGKERELVAAISGTGVRTYYADSVKGRFTISRDNAKNTVYLQMNRLKPEDTAVYYCNAYYGYIPVSGYRNDYWGQGTQVTVSS,low polyreactivity
9,QVQLGESGGGLVQAGGSLRLSCAPSGSPFPYYVMGWYRPAPGKERELVAAISKSGGSTYYADSVKGRFTISRDNAKNTVYLQMNSLKPEDPAVYYCAAAIRSYRGPRFNYWGQGTQVTVSS,high polyreactivity
10,QVQLVESGGGLVQAGGSLRLSCAASGFIIGSYTMGWYRQAHGKERELVASITKRGGSTYYADSVKGRFTISRDNAKNTVYLQMNSLKPEDTSVYYCAATYWFSHRSRYDYWGQGTQVTVSS,high polyreactivity
11,QVQLVESGGGLVQAGGSLRLSCAASGFTFSRNTMGWYRQAPGKEREFVAGIRRSGSSTYYADSVKGRFTISRDNAKNTVYLQMNSLKPEDTAVYYCARVNGAKQGGEYDYWGQGTQVTVSS,high polyreactivity
12,QVQLVESGGGLVQAGGSLRLSCAASGRIFRWNAMGWYRQAPGKERELVAAISWNGGRTYYADSVKGRFTISRDNAKNTVYLQMNSLKPEDTAVYYCAAPHSVPDLHSGDYWGQGSQVTVSS,low polyreactivity
13,QVQLVESRGGLVQAGGSLRLSCAATGFTIYYYAMGWYRQAPGKERELVAAITGSGGSTYYADSVKGRFTISRDNAKNTVYLQMNSLKPEDTAVYYCARRYQVGWYYKYDYWGQGTQVTVSS,high polyreactivity
14,QVQLVESGGGLVQAGGSLRLSCAASGSILKFNAMGWNRQAPGKERELVAAITRGTNTYYADSVKGRFTISRDNAKNTVYLQMNTLKPEDTAVYYCAARLPYNAIGYYYWGQGTQVTVSS,low polyreactivity
15,QVQLEESGGGLVQAGGSLRLSCAASGLTFATYAIGWYRQAPGKERELVAAISRSGGRTYFADSVKGRFTISRDNAKNTVYLQMNSLKPEDTAVYYCNADFYASDDYWGQGTQVTVSS,high polyreactivity
16,QVQLVESGGGLVQAGGSLRLSCAASGSTFPYYVMGWYRQAPGKERELVAAISKSGGSTYYADSVKGRFTISRDNEKNTVYLQMNSLKPEDTAVYYCAKSYRSSRRYNYWGQDTQVTVSS,high polyreactivity
17,QVQLVESGGGIVQAGGSLRLSCAASGSIFFYYAMGWFRPAPGQERELVAAITSSGGTTYYADSVKGRFTISRDNAKNTVYLEMNSLKPEDTAVYDCNALTVGQRDYDYWGQGTQVTVSS,high polyreactivity
18,QDQLVESGGGLVQAGGSLRLSSAASGSIFRGYAMGWYRQAPGKERELVAAITFSGGSTYADSVKGRFTISRDNAKITVYLQMNSLKPEDTAVYYCAAKRTGHNWFTVYPYYSWGQGTQVTVSS,low polyreactivity
19,QVQLVESGGGLVQAGGSLRLSCAASGSIFISYAMGWYRQAPGKERELVAAISSGGSTNYADSVKGRFTISRDNAKNTVYLQMNSLKPEDTAVYYCAADGWLWSFTGDGWWFVYWGQGTQVTVSS,low polyreactivity
20,QVQLVESGGGLDQAGGSLRLSCAASGRTFIYNAMGWYRQAPGKEREFVAAITWSGATTRYADSVKGRFTISRDNAKNTVYLQMNSLKPEDTAVYYCAKGGFYYYGWRSSMDYWGQGTQVTVSS,high polyreactivity
21,QVQLVESGGGLVQAGGSLRLSCAASGFTFASNDMGWYRPAPGKERELVAAITKGGGRTYYADSVKGRFTISRDNAKNTVYLLMNSLKPEDTAVYYCAASQLIKYDYWGQGTEVTVSS,low polyreactivity
22,QVQLVDSGGGLVQAGGSLRLSCAASGGTFDTYAMGWYRQAPGKERELVAVIRASGGDTYYADSVKGRFTISRDNAKNTVYLQMNSLKPEDTAVYYCAAVLPFKYDYWGQGTQVTVSS,low polyreactivity

row,Sequence,polyreactivity (PSR sort gate)
1,QVQLVESGGGLVQAGGSLRLSCAASGLTILDNAMGWYRQAPGKERELVATISGGGSTYYADSVKGRFTISRDNAKNTVYLQMNSLKPEDTAVYYWNAAYVGGPWWYRYTYNYWGQGTQVTVSS,low polyreactivity
2,QVQLVESGGGLVQAGGSLRLSCAASGFIFPRNAMGWYRPAPGKERELVAAISRSGGRTYYADSVKGRFTISRDNAKNTVYLQMNSLKPEDTAVYYCNADLALRSRYGEYDYWGQGTQVTVSS,high polyreactivity
3,QVQLVESGGGLVQAGGSLRLSCAASGFTFYQYAMGWYRQAPGKEREFVAAISSSGSSTYYADSVKGRFTISRDNAKNTVYLQMNSLKPEDTEVYYCNAYFRNWRYSPGGYWGQGTQVTVSS,high polyreactivity
4,QVQLVESGGGLVQAGGSLRLSCAASGRIFGVNAMGWYRQAPGKEREFVAVISSVGSTYYADSVKGRFTISRDNAKNTVYLQMKSLKPEDTAVYYCNAVVGRWFPYYLSDYWGQGTQVTVSS,low polyreactivity
5,QVQLVESGGGLVQAGGSLRLSCAAYGSTVSSNAMGWYRQAPGKERELVAGISSSDVGTYYADSVKGRFTISRDYANNTVYLEMNSLKPDDTAVYYCNADHTGQFPSKLFPLGDNYWGQGTQVTVSS,low polyreactivity
6,QVQLVESGGGLVQAGGSLRLSCAASGYTSRYYAMGWYRQAPGKERELVAAITSGGSTNYADSVKGRFTISRDNAKNTVYLQMNSLKPEDTAVYYCAKGQYPWSYVLQTYIYDYWGQGTQVTVSS,low polyreactivity
7,QVQLVESGGGLVQAGGSLRLSCAASGFTFVINDMGWYRQAPGKERELVADITSGGDTYYADSVKGRFTISRDNAKNTVYLQMNSLKAEDTAVYYCAADIYPDWIYLLYGYWGQGTQVTVSS,low polyreactivity
8,QVQLVESGGGLVQAGGSLRLSCAASGGIFYLYAMGWYRQAPGKEREFVAAISSSGGSTNYADSVKGRFTISRDNAKNTVYLQMNSLKPEDTAVYYCAARWLPFLDLGKTYEYWGQGTQVTVSS,high polyreactivity
9,QVQLVESGGGLVQAGGSLRLSCAASGITFYRYAVGWYRQAPGKERELVAAISCRGGRTYYADSVKGRFTISRDNAKKTVYLQMISLKPEDTAVDYCAAVASRIRGWLDITAYDYWGQGTQVTVSS,high polyreactivity
10,QVQLVESGGGLVQAGGSLRLSCAASGSTFRYYTMGWYRQAPGKERELVARISRSGGSTYYADSVKGRFTISRDNAKNTVYLQMNSLKPEDTAVYYCAALYYVKPGQRYDYWGQGTQVTVSS,high polyreactivity
11,QVQLVESGGGLVQAGGSLRLSCAASGITFPDYDMGWYRQAPGKERELVAAITYRSGSTYYADSVKGRFTISRDNAKNTVYLQMNSLKPEDTAVYYCAATVRGVGYRYYYWGQGTQVTVSS,high polyreactivity
12,QVQRQESGGGLVQAGDSQRLSCAPSGNIFRFTDMGWYRQAPGQERELVAAINAGSTTYYADSVKGRFTISRDNAKNTVYLQMNSLKPEDTAVYYCAVYYLGSGTFGYWGQGAQVTVSS,high polyreactivity
13,QVQLVESGGGLVQAGGSLRLSCAASGSISFSNAMGWYRQAPGKERELVAAISWSGGRTYYADSVKGRCTISRDNAKNTVYLQMNSLKPEDTAVYYCAADDFRYGRQVLGLNDYNYWGLGTQVTVSS,low polyreactivity
14,QVQLVESGGGLVQAGGSLRLSCAASGFIFYLYTMGWYRQAPGKERELVAAITRSGGTYYADSVKGRFTISRDNAKNTVYLQMNSLKPEDTAVYYCNADDYEGYYYWGQGTQVTVSS,low polyreactivity
15,QVQLVESGGGLVQAGGSLRLSCAATGRIFLKYTMGWYRQAPGKERELVAAISRGRSTYYADSVKGRFTISRDNAMNTVYLQMNSLKPEDTAVYYFAATSYRRTGYYYWGQGTQVTVSS,high polyreactivity
16,QVQLVESGGGLVQAGGSLRLSCAASGSSFRVYAMGWSRQAPGKERELVASISRRGGSTYYADSVKGRFTISRDNAKTTVYIQMNSLKPEDTAVYYCNVPYYSFRDVSSYYSGQGTQVTVSS,high polyreactivity
17,QVQLVESGGGLVQARGSLRLSCAASGRTFKRYAMGWYRQAPGKERELVAAIAWSGTSTYYADSVKGRLTISRDNAKNTVYLQMNSLIPEDTAVYYCNTPHRSSSVRSYGYWGQGTQVSVSS,high polyreactivity
18,QVQLVESGGGLVQAGGSLRLSCAASGFTFRSYAMGWYRQAPGKERELVAVISSSGGSTYYADSVKGRFTISRDNAKNTVYLQMNSLKPEDTAVYYCNRRPATRAYLYDYWGQGTQVTVSS,high polyreactivity
19,QVQLVESGGGLVQAGGSLRLSCAASGLTFIYYAMGWYRQAPGKERELVAAISVSGGSTYYADSVKGRFTISRDNAKNTVYLQMNSLKQEDTAVYYCAADWFVHKPRYQYSFDYWGQGTQVTVSS,low polyreactivity
20,QVQLVESGGGLVQAGGSLRLSCAASGYTFDYNAMGSYRQAPGKERELVADITGSGASTSYADSVKGRFTISRDYAKNTVYLQMNSLKPEDTAVYYCNADDSYFYELYGYWGQGTQVTVSS,low polyreactivity
21,QVQLVESGGGLVQAGGSLRLSCAASGFTFRFNAMGWYRQAPGKERELVAAIRYSSGSTYYADSVKGRFTISRDNAKNTVYLEMNSLKPEDTAVYYCAAEQDYNRGYVTGRYYYWGQGTQVTVSS,high polyreactivity
